The text below walks through data of patent publication US11592453B2, “Personalized metabolomic profiling of specialized pro-resolving mediators” (THE BRIGHAM AND WOMEN'S HOSPITAL, INC., priority 2016, dated 2023).

Data set [1] is described as follows: Flow cytometric analysis of clots, cell viability (annexin V / PI). It counts as cell-based, human. As to conditions: human. Here is the method: (§1) Human peripheral blood was collected from healthy individuals without anticoagulant and allowed to coagulate for 24 hours as described earlier. Clots were washed with phosphate-buffered saline (PBS) containing Ca2+ (0.9 mM) and Mg2+ (0.5 mM) and then gently homogenized and passed through a 70-micron filter. Clot-derived cells were stained for flow cytometric analysis. Cells were stained in FACS buffer (PBS with 1% BSA and 0.1% sodium azide). […] For viability assays, FITC-conjugated annexin V (BD) and propidium iodide (PI) were added to the cells according to the manufacturer's protocol. Samples were analyzed with a FACS Canto II flow cytometer (BD Bioscience) and FlowJo X Software.

Data set [2] deals with clot-derived leukocytes and lymphocytes. The description is as above. It counts as cell-based, human. The protocol: as §1
A further data set has as its system human blood clot. The data set is described as follows: Clot volume after 24 hours of coagulation. It counts as cell-based. As to conditions: eptifibatide 20 μM, P<0.01.
Data set [3] relates to SPM production in human whole blood. The data set is described as follows: SPM and eicosanoid production during coagulation with heparin, eptifibatide, ADA, celecoxib or BAI. It counts as cell-based. The protocol: FIG. 2 illustrates regulators of SPM formation in human blood. (A to E) Freshly drawn human peripheral blood (4 ml) containing heparin (10 U/ml) was placed in polypropylene tubes (A) whereas human peripheral blood without anticoagulant was placed in silicone-coated tubes (B to E) and incubated at 37° C. for the time course of 0 to 24 hours (see Example 1, Materials and Methods). The samples were then subjected to snap-freezing for extraction and LC-MS/MS analysis. (A) Concentrations of the members of the SPM cluster (identified in FIG. 1) in samples treated without (Coag.) or with heparin (10 U/ml) during the incubation period. Data are means±SEM of three individual donors. (B) Left: Combined concentrations of the total SPM cluster, prostaglandins, and thromboxanes after 24 hours of coagulation in the presence or absence of the αIIbβ3 inhibitor eptifibatide (Eptifib.; 20 μM). Middle: Clot volumes after 24 hours of coagulation of the indicated samples. Right: Representative clot images. Data are means±SEM of three individual donors. (C) Concentrations of total SPMs and of the indicated individual SPMs after 24 hours of coagulation in the presence or absence of 200 mU ADA. Data are means±SEM of three individual donors. *P<0.05, **P<0.01 by ratio t-test. (D) Top: LC-MS/MS measurements of adenosine concentrations in whole blood at the indicated time points during coagulation in the presence or absence of ADA. **P<0.01 when compared to the zero-hour time point. Bottom: Flow cytometric analysis of the percentage of neutrophil-platelet aggregates, which were defined as being double-positive for CD16 and CD42b, in whole blood allowed to coagulate for the indicated times in the absence (Coag.) or presence of ADA. Data are means±SEM of five individual donors. *P<0.05, **P <0.01 by student's t test. For dot plots and gating, see FIG. 7B. (E) MS/MS fragmentation profiles with diagnostic ions for the indicated SPMs identified in (C). (F) Left: PCA score plot. Red denotes +ADA for 1 hour; yellow, coagulation for 1 hour; green, coagulation for 24 hours; blue, +ADA for 24 hours. Right: PCA loading plot showing temporal clustering of the indicated mediators from three individual donors. Red denotes LM at 1 hour; blue denotes 24 hours with ADA).
FIG. 8 illustrates SPM formation in human blood clots being regulated by lipoxygenase activity. (A and B) Freshly drawn human peripheral blood (4 ml) was placed in silicone-coated tubes at 37° C. for 24 hours and coagulation was stopped by snap-freezing before LC-MS/MS analysis was performed. Concentrations of total SPMs, prostaglandins, and thromboxanes after 24 hours of coagulation (Coag.) in the presence or absence of (A) 100 μM indomethacin (Indo.) (n=six individual donors), (B) 500 nM celecoxib (CLX) or 20 μM BAI (n=three individual donors). […]

For data set [4], the system named is neutrophil-platelet aggregates. Put plainly: Neutrophil-platelet interactions by flow cytometry. As to conditions: with ADA. It counts as cell-based, human. The protocol: Whole blood was collected from healthy individuals without anticoagulant and allowed to coagulate for 1, 6, or 24 h with or without ADA. Clots were washed with PBS and then gently homogenized and passed through a 70 micron-filter. Clot derived neutrophil-platelet interactions were analyzed by flow cytometry with FITC-conjugated anti-human CD16 antibody (clone ebio CB16), and PE-conjugated anti-human CD42b (clone HIP1). Neutrophils were identified by their cell surface expression of CD16 and high side and forward scatter. Platelets were identified based on their low side and forward scatter on a log scale and on their cell surface expression of CD42b. Neutrophil and platelet aggregates were identified as CD14-cells that were double-positive for CD42b and CD16 as CD14-,CD42b+,CD16+,SSChigh,FSChigh.
(Flow cytometry measures light scatter and fluorescence of single cells or particles in a stream.)

For data set [5] the following is noted: ADA, P<0.01. Here is the method: Human blood was subjected to the same freeze-thaw procedure as was used for the metabololipidomics. After centrifugation at 1000 g at 4° C. for 5 min, supernatants were reconstituted with 4 volumes of methanol and kept on ice for 30 min to facilitate protein precipitation. Samples were then subjected to centrifugation at 1000 g at 4° C. for 5 min. Supernatants were reconstituted to <1% methanol and then taken to LC-MS/MS for identification and quantitation of adenosine by matched retention time with ≥99%, pure adenosine (Sigma) through MRM transition 268>136 for the protonated adenine fragment (54).

Where [6] appears, read: 24 h coagulation, n = 3, mean +/- S.E.M.

Read-outs that look alike come from different tables or passages of the source. Positions of bridges follow the written chain, without caps; N, C: chain ends. Non-standard residues stand in square brackets, D forms with d. Residues, ends and D or L forms follow the SMILES beside them. hArg = N=C(N)NCCCC[C@H](N)C(=O)O; Mpa = O=C(O)CCS

Experimental for human blood clot: (A to E) Freshly drawn human peripheral blood (4 ml) containing heparin (10 U/ml) was placed in polypropylene tubes (A) whereas human peripheral blood without anticoagulant was placed in silicone-coated tubes (B to E) and incubated at 37° C. for the time course of 0 to 24 hours (see Example 1, Materials and Methods). The samples were then subjected to snap-freezing for extraction and LC-MS/MS analysis. […] (B) Left: Combined concentrations of the total SPM cluster, prostaglandins, and thromboxanes after 24 hours of coagulation in the presence or absence of the αIIbβ3 inhibitor eptifibatide (Eptifib.; 20 μM). Middle: Clot volumes after 24 hours of coagulation of the indicated samples. Right: Representative clot images. Data are means±SEM of three individual donors.
Human whole blood was transferred in 4-ml aliquots to negatively charged, silicone-coated 10-ml tubes (BD) without anticoagulant. For experiments with heparin, the heparinized blood was placed in 15-ml polypropylene tubes before incubation at 37° C. For LM profiling at designated times, all samples were immediately subjected to a workup procedure by which whole blood was snap-frozen in a dry ice/isopropanol bath and were returned to room temperature (×3 cycles) before undergoing centrifugation at 100,000 g at 4° C.

With `N=C(N)NCCCC[C@@H]1NC(=O)CCSSC[C@@H](C(N)=O)NC(=O)[C@@H]2CCCN2C(=O)[C@H](Cc2c[nH]c3ccccc23)NC(=O)[C@H](CC(=O)O)NC(=O)CNC1=O` [Eptifibatide, eptifibatide, reference compound] ([Mpa][hArg]GDWPC-NH2; disulfide 1-7), the viability – broadly, a per cent measure of how many cells are alive, often set against a control – at 24 h in data set [1] was found to be 90.6 ± 1.3%. Also, in data set [2], the Early apoptosis is listed as 5.1 ± 1.9%, the Late apoptosis came to 2.0 ± 0.5%, the Necrotic was 0.9 ± 0.1% and the “cell viability (in words)” value is “without reducing cell viability”. Besides, in the data set on human blood clot, the “increase in clot volume” value is given as roughly 20%. In data set [3] (eptifibatide 20 μM, 24 hours of coagulation, P<0.01), the “reduction of the total amount of the SPM cluster” value was roughly 50%.

B1: adenosine deaminase (protein, UniProt P00813 2-363, looked up)
Adenosine deaminase: AQTPAFDKPKVELHVHLDGSIKPETILYYGRRRGIALPANTAEGLLNVIGMDKPLTLPDFLAKFDYYMPAIAGCREAIKRIAYEFVEMKAKEGVVYVEVRYSPHLLANSKVEPIPWNQAEGDLTPDEVVALVGQGLQEGERDFGVKARSILCCMRHQPNWSPKVVELCKKYQQQTVVAIDLAGDETIPGSSLLPGHVQAYQEAVKSGIHRTVHAGEVGSAEVVKEAVDILKTERLGHGYHTLEDQALYNRLRQENMHFEICPWSSYLTGAWKPDTEHAVIRLKNDQANYSLNTDDPLIFKSTLDTDYQMTKRDMGFTEEEFKRLNINAAKSSFLPEDEKRELLDLLYKAYGMPPSASAGQNL
notes: human recombinant adenosine deaminase, removes adenosine
In the case of B1, the “number of platelet-neutrophil aggregates during the time course of coagulation” value in data set [4] is on record as “statistically significantly increased”. In data set [2] (setting [6]), this molecule registered an Early apoptosis of 9.9 ± 2.9%, a Late apoptosis of 5.8 ± 1.4%, a Live of 81.5 ± 0.5% and a Necrotic of 2.7 ± 2.0%. Moreover, the “cell viability (in words)” value in data set [2] (during coagulation) is recorded as “Cell viability was not decreased”. Also, the “total SPM production vs. coagulation alone” value in data set [3] (200 mU ADA, 24 hours) is given as “more than 8 times”. For the same molecule, the “time by which adenosine was cleared during coagulation” value in data set [5] is no more than 1 h.
